This assay deals with T1, glutamyl-tRNA synthetase GluRS, C-terminally fused to GFP (S. cerevisiae, UniProt P46655 1-708).
T1 sequence: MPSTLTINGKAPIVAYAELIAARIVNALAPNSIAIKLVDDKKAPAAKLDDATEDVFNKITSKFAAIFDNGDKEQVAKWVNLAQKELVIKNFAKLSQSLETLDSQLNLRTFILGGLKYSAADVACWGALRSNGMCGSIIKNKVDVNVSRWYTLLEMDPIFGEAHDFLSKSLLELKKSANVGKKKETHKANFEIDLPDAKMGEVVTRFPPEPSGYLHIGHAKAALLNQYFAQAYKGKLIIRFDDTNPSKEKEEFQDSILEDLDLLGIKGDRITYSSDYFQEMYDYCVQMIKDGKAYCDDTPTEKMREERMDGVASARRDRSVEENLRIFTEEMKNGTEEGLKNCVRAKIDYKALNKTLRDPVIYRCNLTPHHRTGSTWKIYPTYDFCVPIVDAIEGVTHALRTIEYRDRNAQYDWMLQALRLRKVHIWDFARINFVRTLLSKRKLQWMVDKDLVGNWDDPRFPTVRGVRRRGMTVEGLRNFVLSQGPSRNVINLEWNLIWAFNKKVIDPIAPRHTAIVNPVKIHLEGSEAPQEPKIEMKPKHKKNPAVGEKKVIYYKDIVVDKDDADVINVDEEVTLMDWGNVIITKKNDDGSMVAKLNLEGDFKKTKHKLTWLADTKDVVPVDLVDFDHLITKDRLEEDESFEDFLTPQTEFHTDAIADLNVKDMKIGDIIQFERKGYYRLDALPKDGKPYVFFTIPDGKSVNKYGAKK
The experiment in a line: selective ribosome profiling.

We go through one molecule from publication PMC6372068 (Nature, 2018).

B1: nascent MetRS (ribosome-nascent chain complexes) (natural protein)
chain: MSFLISFDKSKKHPAHLQLANNLKIALALEYASKNLKPEVDNDNAAMELRNTKEPFLLFDANAILRYVMDDFEGQTSDKYQFALASLQNLLYHKELPQQHVEVLTNKAIENYLVELKEPLTTTDLILFANVYALNSSLVHSKFPELPSKVHNAVALAKKHVPRDSSSFKNIGAVKIQADLTVKPKDSEILPKPNERNILITSALPYVNNVPHLGNIIGSVLSADIFARYCKGRNYNALFICGTDEYGTATETKALEEGVTPRQLCDKYHKIHSDVYKWFQIGFDYFGRTTTDKQTEIAQHIFTKLNSNGYLEEQSMKQLYCPVHNSYLADRYVEGECPKCHYDDARGDQCDKCGALLDPFELINPRCKLDDASPEPKYSDHIFLSLDKLESQISEWVEKASEEGNWSKNSKTITQSWLKDGLKPRCITRDLVWGTPVPLEKYKDKVLYVWFDATIGYVSITSNYTKEWKQWWNNPEHVSLYQFMGKDNVPFHTVVFPGSQLGTEENWTMLHHLNTTEYLQYENGKFSKSRGVGVFGNNAQDSGISPSVWRYYLASVRPESSDSHFSWDDFVARNNSELLANLGNFVNRLIKFVNAKYNGVVPKFDPKKVSNYDGLVKDINEILSNYVKEMELGHERRGLEIAMSLSARGNQFLQENKLDNTLFSQSPEKSDAVVAVGLNIIYAVSSIITPYMPEIGEKINKMLNAPALKIDDRFHLAILEGHNINKAEYLFQRIDEKKIDEWRAKYGGQQV
For the molecule B1, the “fold enrichment in footprints” value is ≥ 30 fold.
